B1: Apoptosis-associated speck-like protein containing a CARD, residues 114 to 194; numbered along this chain, Q9ULZ3 (parent)
chain: FIDQHRAALIARVTNVEWLLDALYGKVLTDEQYQAVRAEPTNPSKMRKLFSFTPAWNWTCKDLLLQALRESQSYLVEDLER

This is an account of results in the Human Domainome abundance scans (Beltran et al. 2025).

± gives the uncertainty stated by the source.

The data set covers variants of B1. Kind of data set: abundance fitness (aPCA) (normalised: wild type 0, dead -1); higher = more abundant; growth selection in yeast, the domain comes from the species named. Particulars: Homo sapiens.
With FIDQHRAALIARVFNVEWLLDALYGKVLTDEQYQAVRAEPTNPSKMRKLFSFTPAWNWTCKDLLLQALRESQSYLVEDLER [T14F], the abundance fitness was -0.749 ± 0.17.
Consider FIDQHRAALIARVKNVEWLLDALYGKVLTDEQYQAVRAEPTNPSKMRKLFSFTPAWNWTCKDLLLQALRESQSYLVEDLER [T14K], for which the abundance fitness is -0.295 ± 0.17.
Under FIDQHRAALIARVINVEWLLDALYGKVLTDEQYQAVRAEPTNPSKMRKLFSFTPAWNWTCKDLLLQALRESQSYLVEDLER [T14I] stands -0.541 ± 0.17.
Under FIDQHRAALIARVENVEWLLDALYGKVLTDEQYQAVRAEPTNPSKMRKLFSFTPAWNWTCKDLLLQALRESQSYLVEDLER [T14E] stands -0.004 ± 0.078; under FIDQHRAALIARVGNVEWLLDALYGKVLTDEQYQAVRAEPTNPSKMRKLFSFTPAWNWTCKDLLLQALRESQSYLVEDLER [T14G], -0.265 ± 0.058; under FIDQHRAALIARVDNVEWLLDALYGKVLTDEQYQAVRAEPTNPSKMRKLFSFTPAWNWTCKDLLLQALRESQSYLVEDLER [T14D], -0.058 ± 0.098.
Under FIDQHRAALIARVMNVEWLLDALYGKVLTDEQYQAVRAEPTNPSKMRKLFSFTPAWNWTCKDLLLQALRESQSYLVEDLER [T14M] stands -0.607 ± 0.19; under FIDQHRAALIARVLNVEWLLDALYGKVLTDEQYQAVRAEPTNPSKMRKLFSFTPAWNWTCKDLLLQALRESQSYLVEDLER [T14L], -0.571 ± 0.09; under FIDQHRAALIARVCNVEWLLDALYGKVLTDEQYQAVRAEPTNPSKMRKLFSFTPAWNWTCKDLLLQALRESQSYLVEDLER [T14C], -0.656 ± 0.18.
Regarding FIDQHRAALIARVANVEWLLDALYGKVLTDEQYQAVRAEPTNPSKMRKLFSFTPAWNWTCKDLLLQALRESQSYLVEDLER [T14A], the abundance fitness was -0.4 ± 0.067.
Consider FIDQHRAALIARVHNVEWLLDALYGKVLTDEQYQAVRAEPTNPSKMRKLFSFTPAWNWTCKDLLLQALRESQSYLVEDLER [T14H], for which the abundance fitness is -0.644 ± 0.22.
Under FIDQHRAALIAEVTNVEWLLDALYGKVLTDEQYQAVRAEPTNPSKMRKLFSFTPAWNWTCKDLLLQALRESQSYLVEDLER [R12E] stands -0.316 ± 0.07.
Under FIDQHRAALIAGVTNVEWLLDALYGKVLTDEQYQAVRAEPTNPSKMRKLFSFTPAWNWTCKDLLLQALRESQSYLVEDLER [R12G] stands -0.17 ± 0.034.
Under FIDQHRAALIASVTNVEWLLDALYGKVLTDEQYQAVRAEPTNPSKMRKLFSFTPAWNWTCKDLLLQALRESQSYLVEDLER [R12S] stands -0.462 ± 0.085; under FIDQHRAALIAQVTNVEWLLDALYGKVLTDEQYQAVRAEPTNPSKMRKLFSFTPAWNWTCKDLLLQALRESQSYLVEDLER [R12Q], -0.152 ± 0.091.
Take FIDQHRAALIADVTNVEWLLDALYGKVLTDEQYQAVRAEPTNPSKMRKLFSFTPAWNWTCKDLLLQALRESQSYLVEDLER [R12D]: the abundance fitness was -0.666 ± 0.26.
Under FIDQHRAALIAAVTNVEWLLDALYGKVLTDEQYQAVRAEPTNPSKMRKLFSFTPAWNWTCKDLLLQALRESQSYLVEDLER [R12A] stands -0.707 ± 0.092.
Under FIDQHRAALIAIVTNVEWLLDALYGKVLTDEQYQAVRAEPTNPSKMRKLFSFTPAWNWTCKDLLLQALRESQSYLVEDLER [R12I] stands -0.803 ± 0.38.
In the case of FIDQHRAALIAFVTNVEWLLDALYGKVLTDEQYQAVRAEPTNPSKMRKLFSFTPAWNWTCKDLLLQALRESQSYLVEDLER [R12F], the abundance fitness is -0.655 ± 0.21.
Under FIDQHRAALIAHVTNVEWLLDALYGKVLTDEQYQAVRAEPTNPSKMRKLFSFTPAWNWTCKDLLLQALRESQSYLVEDLER [R12H] stands -0.219 ± 0.12; under FIDQHRAALIAKVTNVEWLLDALYGKVLTDEQYQAVRAEPTNPSKMRKLFSFTPAWNWTCKDLLLQALRESQSYLVEDLER [R12K], -0.228 ± 0.095.
Turning to FIDQHRAALIACVTNVEWLLDALYGKVLTDEQYQAVRAEPTNPSKMRKLFSFTPAWNWTCKDLLLQALRESQSYLVEDLER [R12C], the abundance fitness was -0.361 ± 0.15.
For FIDQHRAALIAWVTNVEWLLDALYGKVLTDEQYQAVRAEPTNPSKMRKLFSFTPAWNWTCKDLLLQALRESQSYLVEDLER [R12W], the abundance fitness is -1.18 ± 0.29.
Under FIDQHRAALIAMVTNVEWLLDALYGKVLTDEQYQAVRAEPTNPSKMRKLFSFTPAWNWTCKDLLLQALRESQSYLVEDLER [R12M] stands -0.628 ± 0.11; under FIDQHRAALIAYVTNVEWLLDALYGKVLTDEQYQAVRAEPTNPSKMRKLFSFTPAWNWTCKDLLLQALRESQSYLVEDLER [R12Y], -0.484 ± 0.13; under FIDQHRAALIATVTNVEWLLDALYGKVLTDEQYQAVRAEPTNPSKMRKLFSFTPAWNWTCKDLLLQALRESQSYLVEDLER [R12T], -0.746 ± 0.13.
As for FIDQHRAALIANVTNVEWLLDALYGKVLTDEQYQAVRAEPTNPSKMRKLFSFTPAWNWTCKDLLLQALRESQSYLVEDLER [R12N], the abundance fitness is -0.14 ± 0.16.
Consider FIDQHRAALIALVTNVEWLLDALYGKVLTDEQYQAVRAEPTNPSKMRKLFSFTPAWNWTCKDLLLQALRESQSYLVEDLER [R12L], for which the abundance fitness is -0.948 ± 0.13.
Under FIDQHRAALIAPVTNVEWLLDALYGKVLTDEQYQAVRAEPTNPSKMRKLFSFTPAWNWTCKDLLLQALRESQSYLVEDLER [R12P] stands -0.964 ± 0.18; under FIDQHRAALIARETNVEWLLDALYGKVLTDEQYQAVRAEPTNPSKMRKLFSFTPAWNWTCKDLLLQALRESQSYLVEDLER [V13E], -0.538 ± 0.11; under FIDQHRAALIARRTNVEWLLDALYGKVLTDEQYQAVRAEPTNPSKMRKLFSFTPAWNWTCKDLLLQALRESQSYLVEDLER [V13R], -0.851 ± 0.085.
For FIDQHRAALIARFTNVEWLLDALYGKVLTDEQYQAVRAEPTNPSKMRKLFSFTPAWNWTCKDLLLQALRESQSYLVEDLER [V13F], the abundance fitness was -0.495 ± 0.15.
FIDQHRAALIARYTNVEWLLDALYGKVLTDEQYQAVRAEPTNPSKMRKLFSFTPAWNWTCKDLLLQALRESQSYLVEDLER [V13Y]: the abundance fitness was -0.729 ± 0.24.
FIDQHRAALIARPTNVEWLLDALYGKVLTDEQYQAVRAEPTNPSKMRKLFSFTPAWNWTCKDLLLQALRESQSYLVEDLER [V13P]: the abundance fitness was -0.396 ± 0.12.
